# Measurements as given in the supplement of paper PMC9112550, “Optimization of the antimicrobial peptide Bac7 by deep mutational scanning” (BMC Biology, 2022).
# Test system: Escherichia coli TOP10
# Experiment: shrunken log2 fold change of peptide-encoding DNA abundance (4.5 h post-induction vs induction); higher = less antimicrobial activity (less host growth inhibition)
# Conditions: time post-induction: 4.5 h; library: site-saturation at positions 5, 18, 19, 20
# 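Further: peptides expressed intracellularly from a pBAD plasmid library in pooled LB shake-flask culture, induced with 0.3% L-arabinose, DNA abundance read by NGS, three biological replicates, DESeq2 with apeglm shrinkage.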
row,Sequence,shrunken log2 fold change
1,RRIRARPPRLPRPRPRPPFWPRP,0.914
2,RRIRFRPPRLPRPRPRPSRSPRP,-0.104
3,RRIRSRPPRLPRPRPRPIAFPRP,-0.388
4,RRIRARPPRLPRPRPRPWHTPRP,-0.219
5,RRIRTRPPRLPRPRPRPNDEPRP,-0.0966
6,RRIRNRPPRLPRPRPRPICMPRP,-0.195
7,RRIRYRPPRLPRPRPRPRIQPRP,-0.203
8,RRIRGRPPRLPRPRPRPMYCPRP,0.0756
9,RRIRLRPPRLPRPRPRPALSPRP,3.4
10,RRIRVRPPRLPRPRPRPFCRPRP,-0.215
11,RRIRLRPPRLPRPRPRPMNTPRP,-0.524
12,RRIRVRPPRLPRPRPRPQGYPRP,0.0811
13,RRIRARPPRLPRPRPRPKKYPRP,-0.232
14,RRIRERPPRLPRPRPRPLEEPRP,0.239
15,RRIRERPPRLPRPRPRPLGNPRP,-0.477
16,RRIRVRPPRLPRPRPRPQWVPRP,-0.222
17,RRIRKRPPRLPRPRPRPLTHPRP,0.0737
18,RRIRKRPPRLPRPRPRPMDRPRP,0.0586
19,RRIRIRPPRLPRPRPRPLQMPRP,-0.264
20,RRIRDRPPRLPRPRPRPNTCPRP,-0.0241
21,RRIRKRPPRLPRPRPRPVISPRP,-0.00841
22,RRIRLRPPRLPRPRPRPMNEPRP,-0.00493
23,RRIRPRPPRLPRPRPRPHRMPRP,-0.465

row,Sequence,shrunken log2 fold change
1,RRIRDRPPRLPRPRPRPERVPRP,0.388
2,RRIRHRPPRLPRPRPRPEQGPRP,0.0631
3,RRIRHRPPRLPRPRPRPLSYPRP,-0.895
4,RRIRIRPPRLPRPRPRPKSMPRP,-0.208
5,RRIRGRPPRLPRPRPRPLHKPRP,0.714
6,RRIRWRPPRLPRPRPRPSTCPRP,-0.457
7,RRIRRRPPRLPRPRPRPLLSPRP,0.148
8,RRIRKRPPRLPRPRPRPKYSPRP,-0.13
9,RRIRHRPPRLPRPRPRPNNVPRP,-0.68
10,RRIRYRPPRLPRPRPRPTWYPRP,-0.168
11,RRIRKRPPRLPRPRPRPNDYPRP,-0.115
12,RRIRFRPPRLPRPRPRPNGHPRP,-0.0454
13,RRIRGRPPRLPRPRPRPELSPRP,0.169
14,RRIRPRPPRLPRPRPRPTCGPRP,-0.0302
15,RRIRIRPPRLPRPRPRPVHKPRP,-0.442
16,RRIRSRPPRLPRPRPRPSMGPRP,-0.0521
17,RRIRSRPPRLPRPRPRPSHQPRP,-0.284
18,RRIRSRPPRLPRPRPRPMTRPRP,0.381
19,RRIRKRPPRLPRPRPRPIPCPRP,0.276
20,RRIRHRPPRLPRPRPRPNGMPRP,-0.0133
21,RRIRNRPPRLPRPRPRPNSWPRP,-0.3
22,RRIRKRPPRLPRPRPRPSVNPRP,-0.0205
23,RRIRPRPPRLPRPRPRPLNDPRP,-0.298

row,Sequence,shrunken log2 fold change
1,RRIRDRPPRLPRPRPRPCFSPRP,-0.0275
2,RRIRIRPPRLPRPRPRPTFCPRP,-0.02
3,RRIRFRPPRLPRPRPRPMIDPRP,-0.209
4,RRIRRRPPRLPRPRPRPLFFPRP,0.137
5,RRIRTRPPRLPRPRPRPSENPRP,-0.0993
6,RRIRARPPRLPRPRPRPEPHPRP,0.374
7,RRIRFRPPRLPRPRPRPTHHPRP,0.781
8,RRIRARPPRLPRPRPRPFPEPRP,0.319
9,RRIRYRPPRLPRPRPRPYQKPRP,-0.0257
10,RRIRMRPPRLPRPRPRPELPPRP,2.29
11,RRIRTRPPRLPRPRPRPVHPPRP,-0.579
12,RRIRGRPPRLPRPRPRPPAYPRP,0.532
13,RRIRLRPPRLPRPRPRPLLEPRP,-0.0263
14,RRIRSRPPRLPRPRPRPQFHPRP,-0.206
15,RRIRYRPPRLPRPRPRPSVLPRP,-0.444
16,RRIRARPPRLPRPRPRPGSIPRP,-0.283
17,RRIRFRPPRLPRPRPRPSYKPRP,-0.819
18,RRIRNRPPRLPRPRPRPHTQPRP,-0.328
19,RRIRERPPRLPRPRPRPHRHPRP,-0.18
20,RRIRWRPPRLPRPRPRPPQYPRP,0.0672
21,RRIRWRPPRLPRPRPRPAVWPRP,0.32
22,RRIRERPPRLPRPRPRPMDEPRP,-0.153
23,RRIRFRPPRLPRPRPRPYNWPRP,-0.0539

row,Sequence,shrunken log2 fold change
1,RRIRLRPPRLPRPRPRPYSNPRP,-0.212
2,RRIRSRPPRLPRPRPRPYYGPRP,-0.197
3,RRIRNRPPRLPRPRPRPAVWPRP,0.583
4,RRIRARPPRLPRPRPRPHWVPRP,0.0153
5,RRIRYRPPRLPRPRPRPCNNPRP,-0.331
6,RRIRWRPPRLPRPRPRPVAMPRP,0.427
7,RRIRCRPPRLPRPRPRPDCQPRP,-0.0895
8,RRIRHRPPRLPRPRPRPHGFPRP,-0.0127
9,RRIRRRPPRLPRPRPRPMTHPRP,-0.17
10,RRIRWRPPRLPRPRPRPKLWPRP,1.06
11,RRIRQRPPRLPRPRPRPRNTPRP,-0.00635
12,RRIRHRPPRLPRPRPRPKWFPRP,-0.233
13,RRIRHRPPRLPRPRPRPNGNPRP,-0.617
14,RRIRTRPPRLPRPRPRPCVKPRP,0.0506
15,RRIRMRPPRLPRPRPRPTEHPRP,0.443
16,RRIRFRPPRLPRPRPRPLGPPRP,0.148
17,RRIRPRPPRLPRPRPRPRTAPRP,0.562
18,RRIRSRPPRLPRPRPRPQARPRP,0.122
19,RRIRDRPPRLPRPRPRPCWNPRP,-0.389
20,RRIRIRPPRLPRPRPRPTDMPRP,-0.385
21,RRIRPRPPRLPRPRPRPRHPPRP,0.357
22,RRIRFRPPRLPRPRPRPVVSPRP,0.0235
23,RRIRDRPPRLPRPRPRPSSRPRP,-0.0968

row,Sequence,shrunken log2 fold change
1,RRIRFRPPRLPRPRPRPRSHPRP,-0.181
2,RRIRWRPPRLPRPRPRPDFDPRP,0.0791
3,RRIRARPPRLPRPRPRPHIDPRP,0.205
4,RRIRARPPRLPRPRPRPCLKPRP,-0.0264
5,RRIRSRPPRLPRPRPRPWTNPRP,-0.0183
6,RRIRHRPPRLPRPRPRPSFDPRP,-0.429
7,RRIRPRPPRLPRPRPRPCQYPRP,0.0594
8,RRIRQRPPRLPRPRPRPAHHPRP,0.138
9,RRIRVRPPRLPRPRPRPGFGPRP,0.408
10,RRIRFRPPRLPRPRPRPQVNPRP,-0.0623
11,RRIRHRPPRLPRPRPRPFELPRP,-0.0176
12,RRIRFRPPRLPRPRPRPLHVPRP,-0.208
13,RRIRVRPPRLPRPRPRPTGEPRP,0.187
14,RRIRVRPPRLPRPRPRPNFRPRP,0.19
15,RRIRPRPPRLPRPRPRPIQCPRP,0.0062
16,RRIRWRPPRLPRPRPRPYEFPRP,-0.00843
17,RRIRKRPPRLPRPRPRPMTKPRP,0.397
18,RRIRARPPRLPRPRPRPAKPPRP,0.127
19,RRIRCRPPRLPRPRPRPRKHPRP,0.0674
20,RRIRFRPPRLPRPRPRPEDAPRP,0.00922
21,RRIRFRPPRLPRPRPRPFHCPRP,-0.102
22,RRIRGRPPRLPRPRPRPANWPRP,0.731
23,RRIRARPPRLPRPRPRPPMQPRP,0.781

row,Sequence,shrunken log2 fold change
1,RRIRIRPPRLPRPRPRPFDVPRP,-0.296
2,RRIRSRPPRLPRPRPRPIQLPRP,-0.238
3,RRIRRRPPRLPRPRPRPKVVPRP,0.0343
4,RRIRPRPPRLPRPRPRPFWTPRP,-0.0762
5,RRIRCRPPRLPRPRPRPWGCPRP,-0.00936
6,RRIRNRPPRLPRPRPRPVSYPRP,0.0156
7,RRIRLRPPRLPRPRPRPDKLPRP,-0.266
8,RRIRMRPPRLPRPRPRPCFEPRP,0.286
9,RRIRKRPPRLPRPRPRPHYVPRP,-0.0482
10,RRIRCRPPRLPRPRPRPVYGPRP,-0.747
11,RRIRPRPPRLPRPRPRPIMNPRP,-0.799
12,RRIRVRPPRLPRPRPRPHVTPRP,-0.304
13,RRIRMRPPRLPRPRPRPHGNPRP,-0.184
14,RRIRKRPPRLPRPRPRPDRVPRP,-0.00884
15,RRIRERPPRLPRPRPRPRRQPRP,0.00864
16,RRIRRRPPRLPRPRPRPPWCPRP,0.294
17,RRIRCRPPRLPRPRPRPFEYPRP,-0.548
18,RRIRQRPPRLPRPRPRPQPDPRP,-0.00546
19,RRIRVRPPRLPRPRPRPWWLPRP,-0.0366
20,RRIRKRPPRLPRPRPRPNAWPRP,0.0867
21,RRIRMRPPRLPRPRPRPRLHPRP,0.721
